Results on 20 molecules are retold here after patent US20230250190A1 (published 2023).

Assay in all cases: glycopeptide array
The target of assay [1] is T1, T11 (Tn-MUC1) (PAPGSTAPPAHGVT(α-GalNAc)SAPDT(α-GalNAc)RPAPG-OH).
T1 peptide: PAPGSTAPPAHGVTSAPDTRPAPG

The target in assay [2] is T2, T8 (Tn-MUC1) (PAPGST(α-GalNAc)APPAHGVTSAPDT(α-GalNAc)RPAPG-OH).
T2 peptide: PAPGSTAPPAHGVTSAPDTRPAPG

For assay [3], the target named is T3, T4 (Tn-MUC1) (PAPGSTAPPAHGVT(α-GalNAc)SAPDTRPAPG-OH).
T3 peptide: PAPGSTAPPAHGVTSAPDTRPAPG

The target of assay [4] is T4, T9 (Tn-MUC1) (PAPGSTAPPAHGVT(α-GalNAc)S(α-GalNAc)APDTRPAPG-OH).
T4 peptide: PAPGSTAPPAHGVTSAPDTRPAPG

The target of assay [5] is T5, S4 (sTn-MUC1) (PAPGSTAPPAHGVT(Neu5Ac-α(2-6)-GalNAc)SAPDTRPAPG-OH).
T5 peptide: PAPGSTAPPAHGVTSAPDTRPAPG

The target in assay [6] is T6, S9 (sTn-MUC1) (PAPGSTAPPAHGVT(Neu5Ac-α(2-6)-GalNAc)S(Neu5Ac-a(2-6)-GalNAc)APDTRPAPG-OH).
T6 peptide: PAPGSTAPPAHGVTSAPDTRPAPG

Assay [7] deals with T7, S11 (sTn-MUC1) (PAPGSTAPPAHGVT(Neu5Ac-α(2-6)-GalNAc)SAPDT(Neu5Ac-a(2-6)-GalNAc)RPAPG-OH).
T7 peptide: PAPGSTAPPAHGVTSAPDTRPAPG

B1: 37 (antibody, V domains shown)
VH: QVQLVQSGAEVKKPGASVTVSCKTSGYTFTSYYIHWLRQAPGQGLEWMGVINPFGGATNYAQKFQGRVTMTRDTSTITVYMELSSLRSEDTAVYYCARDAMGGDSHFDHWGRGTLVTVSS
In general, EC50 refers to the concentration needed to bring the measured effect to its halfway point. High values mean lower potency in that assay, low ones higher potency in that assay. B1: the EC50 in assay [1] was determined as 0.158 µg/mL; in assay [2] it was 0.144 µg/mL; in assay [3] it was 0.157 µg/mL; in assay [4], 0.13 µg/mL.

B2: 190 (antibody, V domains shown)
VH: QVQLVQSGAEVKKPGASVKVSCKASGYAFTNYYIHWVRQAPGHGLTWMGVINPFDSSTDFAQKFQGRLTMTRDTSTSTVYMDLSSLRSEDTAVYYCARDYMRGHVVFDNWGQGTLVTVSS
In the case of B2, the half-maximal effective concentration (EC50) in assay [1] is 0.122 µg/mL; in assay [2] it was 0.108 µg/mL; in assay [3], 0.102 µg/mL; in assay [4], 0.12 µg/mL.

B3: 174 (antibody, V domains shown)
VH: EVQLVESGAEVKKPGASVKVSCKASGYTFNRYYLHWVRQAPGQGLEWMGVINPYDGSTNYAQKFRGRITMTRDTSTNTVYMELSSLRSEDTAVYFCARDAMEGDSYFDKWGQGTLVTVSS
With B3, the EC50 in assay [1] came to 0.192 µg/mL; in assay [2], 0.174 µg/mL; in assay [3] it was 0.178 µg/mL; in assay [4], 0.144 µg/mL.

B4: 162 (antibody, V domains shown)
VH: QVQLVQSGAEVKKPGASVMLSCKASGYIFTSYYIQWVRQAPGQGLEWMGVVNPYDGSTNYAQKFQGRVTITRDTSTSTVFMELSSLRSEDTAVYYCARDNMLGHVIFDFWGQGTLVTVSS
As to B4, the EC50 in assay [1] was 0.063 µg/mL; in assay [2], 0.043 µg/mL; in assay [3] it was 0.037 µg/mL; in assay [4], 0.037 µg/mL.

B5: 62 (antibody, V domains shown)
VH: QVQLVESGAEVKKPGASVKVSCKASGYSFTSYYIQWVRQAPGQGLEWLAVINPIDGSTNYAQKFQGRVTVTRDTSTSTVYMELSSLRSEDTAVYYCARDYMRGFVVFDYWGQGTLVTVSS
Take B5: the EC50 in assay [1] was found to be 0.097 µg/mL; in assay [2] it was 0.07 µg/mL; in assay [3], 0.042 µg/mL; in assay [4], 0.045 µg/mL.

B6: 13 (antibody, V domains shown)
VH: QVQLVQSGAEVKKPGASLKVSCKASGYTFTNYYIQWVRQAPGQGLEWMGVINPYDGSTNYAQKFQGRVTLTRDTSTTTVYMELSSLRSDDTAVYYCARDYMIGYVVFDYWGQGTLVTVSS
Regarding B6, the EC50 was 0.158 µg/mL in assay [1]; 0.145 µg/mL in assay [2]; 0.153 µg/mL in assay [3]; 0.134 µg/mL in assay [4]; 0.156 µg/mL in assay [5]; 0.279 µg/mL in assay [6].

B7: 150 (antibody, V domains shown)
VH: QVQLVQSGAEVKTPGASVKVSCKASGYTFTNYYIQWVRQAPGQALEWMGVINPYDGSTHYAQKFQGRVTLTRDTSTTTVYMDLSSLRSEDAAVYYCARDYMLGYVVFDYWGQGTLVTVSS
As for B7, the EC50 was determined as 0.157 µg/mL in assay [1], 0.135 µg/mL in assay [2], 0.126 µg/mL in assay [3] and 0.098 µg/mL in assay [4].

B8: 194 (antibody, V domains shown)
VH: QVQLVQSGAEVKKPGTSVKVSCTASGYTFTNYYIQWVRQAPGQGLEWLGVINPYDGSTDYAQKFQGRVTLTRDTSTTTVYMELSSLRSEDTAVYYCARDYMLGYVVFDFWGQGTLVTVSS
Turning to B8, the EC50 in assay [1] turned out to be 0.109 µg/mL; in assay [2], 0.099 µg/mL; in assay [3], 0.1 µg/mL; in assay [4], 0.082 µg/mL.

B9: 198 (antibody, V domains shown)
VH: QVQLVQSGAEVKKPGASVKVSCKASGYTFINNYIQWVRQAPGQGLEWMGVINPYDGSIHYAQKFQGRVTLTRDTSTTTVYMELSSLRSEDTAVYYCARDYMIGYVVFEYWGQGTLVTVSS
Take B9: the EC50 in assay [1] is 0.137 µg/mL; in assay [2] it was 0.121 µg/mL; in assay [3] it was 0.111 µg/mL; in assay [4], 0.121 µg/mL.

B10: 102 (antibody, V domains shown)
VH: QVQLVQSGAEVKKSGASVKVSCKASGYPFISYYIHWLRQAPGQGLTWMGVINPFDGSTDYAQKFQGRVTVTRDTSTSTVYMDLSSLRADDTAIYYCARDYMRGYVVFDYWGQGTLVTVSS
As to B10, the EC50 in assay [1] amounted to 0.111 µg/mL; in assay [2] it was 0.101 µg/mL; in assay [3] it was 0.087 µg/mL; in assay [4] it was 0.102 µg/mL.

B11: 146 (antibody, V domains shown)
VH: QVQLVQSGAEVKKPGASVKVSCKASGYAFTSYYIHWVRQAPGQGLEWMGVINPYGGSTNYAQKFQGRVTMTRDTSTRIVYMDLSSLRSEDTAVYYCARDAMEGDSYFDYWGQGTLVTVSS
As to B11, the EC50 is 0.116 µg/mL in assay [1], 0.104 µg/mL in assay [2], 0.081 µg/mL in assay [3] and 0.086 µg/mL in assay [4].

B12: 86 (antibody, V domains shown)
VH: QVQLVQSGAEVKKPGASVKVSCKASGYPFINYYIQWVRQAPGQGLEWMGVINPFDGSTNYAQKFQGRVTVTRDTSTSTVFMDLSSLRSEDTAVYYCARDNMIGYVLFDYWGQGTLVTVSS
In the case of B12, the EC50 in assay [1] came to 0.068 µg/mL; in assay [2], 0.061 µg/mL; in assay [3] it was 0.057 µg/mL; in assay [4], 0.05 µg/mL; in assay [5], 0.074 µg/mL; in assay [7] it was 13.1 µg/mL. Also, the midpoint of the response in assay [6], the EC50, lay at 0.105 µg/mL.

B13: 138 (antibody, V domains shown)
VH: QVQLVQSGAEVKKPGASVRVSCKASGYTFINYYLQWVRQAPGQGLEWMGTINPFDGSTHYAQKFQGRVTMTRDTSTSTVYMELSSLRSEDTAVYYCARDSMIGYVLFDYWGQGTLVTVSS
In the case of B13, the EC50 was 0.123 µg/mL in assay [1], 0.106 µg/mL in assay [2], 0.116 µg/mL in assay [3] and 0.096 µg/mL in assay [4].

B14: 206 (antibody, V domains shown)
VH: QVQLVQSGAEVKKPGASVRVSCKASGYPFINYYIQWVRQAPGQGLEWMGVINPFDGSTNYAQKFQGRVTVTRDTSTSTVFMDLNSLRSEDTAVYYCARDSMIGYVLFDFWGQGTLVTVSS
For B14, the EC50 in assay [1] came to 0.088 µg/mL; in assay [2], 0.084 µg/mL; in assay [3], 0.068 µg/mL; in assay [4], 0.066 µg/mL.

B15: 82 (antibody, V domains shown)
VH: QVQLVQSGAEVKKPGASVKVSCKASGYTFTSYYIHWVRQAPGQGLEWMGVINPYDSSTNYAQKFQGRVTMTRDTSTSTVFMDLSSLRSEDTAVYYCARDNMIGYVLFDYWGQGTLVTVSS
Regarding B15, the EC50 in assay [1] was determined as 0.227 µg/mL; in assay [2] it was 0.196 µg/mL; in assay [3] it was 0.145 µg/mL; in assay [4] it was 0.167 µg/mL; in assay [5] it was 0.173 µg/mL; in assay [7] it was 58.6 µg/mL. For the same molecule, in assay [6], the response was half-maximal at 0.83 µg/mL (EC50).

B16: SEQ ID NO 29 (bivalent monospecific MUC1 IgG) (antibody, V domains shown)
VH: QVQLVQSGAEVKKPGASVKVSCKASGYSFIHYYIHWVRQAPGQGLEWMGVINPFDGSTNYAQKFQDRVTVTRDTSTSTVFMDLSSLRSEDTAVYYCARDNMIGYVLFDDWGQGTLVTVSS
VL: not shown
Turning to B16, the EC50 in assay [1] turned out to be 0.126 µg/mL; in assay [2], 0.121 µg/mL; in assay [3], 0.104 µg/mL; in assay [4], 0.118 µg/mL; in assay [5], 0.118 µg/mL; in assay [7], 6.96 µg/mL. In addition, a half-maximal response in assay [6] (EC50) required 0.22 µg/mL.

B17: 33 (antibody, V domains shown)
VH: QVQLVQSGAEVKKPGASVRVSCKASGYPFINYYIQWVRQAPGQGLEWMGVINPFDGSTNYAQKFQDRVTVTRDTSTSTVFMDLSSLRSEDTAVYYCARDNMIGYVLLDYWGQGTLVTVSS
Turning to B17, the EC50 was found to be 0.088 µg/mL in assay [1], 0.079 µg/mL in assay [2], 0.076 µg/mL in assay [3] and 0.071 µg/mL in assay [4].

B18: SEQ ID NO 178 (bivalent monospecific MUC1 IgG) (antibody, V domains shown)
VH: QVQLVQSGAEVKKPGASVKVSCKASGYTFNRHYIQWVRQAPGQGLEWMGTINPYDGSTFYAQKFQDRVTMTRDTSTSTVYMDLNSLKSEDTAVYYCARDYMRGHVLFDYWGQGTLVTVSS
VL: not shown
Take B18: the EC50 in assay [1] came out at 0.108 µg/mL; in assay [2] it was 0.095 µg/mL; in assay [3] it was 0.103 µg/mL; in assay [4], 0.09 µg/mL; in assay [5], 0.098 µg/mL; in assay [7] it was 0.335 µg/mL. In assay [6], a half-maximal response (EC50) required 0.108 µg/mL.

B19: 74 (antibody, V domains shown)
VH: QVQLVQSGAEVKKPGASVQVSCKASGYTFINYYLQWVRQAPGQGLEWMGTINPFDGSTHYEQNFQGRVTMTRDTSTNTVYMELNGLRSEDTAVYYCARDHMIGYILFDYWGQGTTVTVSS
Regarding B19, the concentration for a half-maximal effect (EC50) in assay [1] worked out at 0.137 µg/mL; in assay [2] it was 0.118 µg/mL; in assay [3] it was 0.111 µg/mL; in assay [4], 0.096 µg/mL.

B20: 170 (antibody, V domains shown)
VH: QVQLVQSGAEVKKPGASVQVSCKASGYTFINYYLQWVRQAPGQGLEWMGTINPFDGSTHYAQKFQGRVTMTRDTSTNTVYMELNSLRSEDTAVYYCARDRMIGYVLFDYWGQGTLVTVSS
In the case of B20, the EC50 in assay [1] amounted to 0.141 µg/mL; in assay [2], 0.123 µg/mL; in assay [3], 0.116 µg/mL; in assay [4] it was 0.127 µg/mL.
